The text below walks through data of article PMC10520678.

For test [1], the target named is TRIM21 (UniProt P19474). Nature of the test: anti-Flag co-IP, TRIM21 blot. The note with it: reference: wild type, EGF-treated; sites Y288.
The target in test [2] is TRIM21 (UniProt P19474). Nature of the test: co-IP, blot. The note with it: reference: wild type CD47, c-Src CA expressed; sites Y288.

For “CD47 (from UniProt Q08722) Y288F, EGF-treated”, in the test with TRIM21 [1], the “binding against the reference” value was “stronger”.

Take “CD47 (from UniProt Q08722) Y288F, c-Src CA expressed”: in the test with TRIM21 [2], the “binding against the reference” value is reported as “stronger”.
